From patent US20230280350A1 (NORDIC BIOSCIENCE A S, published 2023)
No end group written: not given here. *: point of attachment. Biotin = O=C1N[C@H]2[C@H](CS[C@H]2CCCCC(=O)*)N1

What was measured:
[1] = target: T1, Nonsense peptide VPKDLPPDTT (not fully specified); test: competitive ELISA, peptide against coated Biotin-K-…
T1 construct: Control peptide
T1 peptide: VPKDLPPDTT
Description: (§1) The PRO-C16 amino acid sequence 1595′-[…] (SEQ ID NO: 1) located at the C-terminal was used to generate an antibody specific for the C-terminal of col-16. It was additionally used to design the selection peptide ([…]; SEQ ID NO: 1) (Table 1). The sequence was BLASTed for homology to other human proteins and species using the NPS@: network protein sequence analysis with the Uniprot/Swiss-Prot database (20). The amino acid sequence is unique to human col-16. A biotinylated peptide (Biotin-K-[…]) was used to coat the streptavidin-coated plates applied in the ELISA. An elongated peptide ([…]; SEQ ID NO: 2), a truncated peptide ([…]; SEQ ID NO: 3), a nonsense peptide ([…]; SEQ ID NO: 5) and a nonsense biotinylated peptide (Biotin-[…]; SEQ ID NO: 6) were included to test the specificity of the antibody.
(§2) The PRO-C16 competitive ELISA procedure was as follows; a 96-well streptavidin-coated microtiter plate was coated with 100 µl of biotinylated peptide (Biotin-K-[…]; SEQ ID NO: 4) dissolved in assay buffer (50 mM PBS-BTB, 4 g/l NaCl, pH 7.4) (final concentration of […]). The plate was incubated for 30 minutes at 20° C. with shaking (300 rpm) and then washed five times in washing buffer (20 mM TRIS, 50 mM NaCl, pH 7.2). A volume of 20 µl of sample/control/selection peptide ([…]; SEQ ID NO: 1) was added followed by immediately addition of 100 µl of monoclonal antibody diluted in assay buffer (final concentration of 62.5 ng/ml). The plate was incubated for 1 hour at 20° C. with shaking followed by five washes in washing buffer. Then, 100 µl of goat anti-mouse HRP-conjugated IgG antibody (Thermo Scientific, Waltham, MA, USA; cat. #31437) diluted in assay buffer (final concentration of 130 ng/ml) was added to each well. […] To stop the reaction of TMB, 100 µl of 1% H₂SO₄ was added and the plate was analyzed in a VersaMax ELISA microplate reader at 450 nm with 650 nm as reference. A standard curve was plotted using a 4-parametric mathematical fit model and data were analyzed using the Softmax Pro v. […]

[2] = target: T2, Elongated peptide PMKTMKGPFGG; test: competitive ELISA, peptide against coated Biotin-K-PMKTMKGPFG
T2 construct: Selection peptide with one extra glycine at the C-terminus
T2 peptide: PMKTMKGPFGG
Description: as §1, §2

[3] = target: T3, Truncated peptide PMKTMKGPF; test: competitive ELISA, peptide against coated Biotin-K-…
T3 construct: Selection peptide without its C-terminal glycine
T3 peptide: PMKTMKGPF
Description: as §1, §2

[4] = target: T4, Nonsense biotinylated peptide Biotin-VPKDLPPDTT; test: ELISA with the nonsense biotinylated peptide on streptavidin plates
T4 construct: Control coating peptide
T4 peptide: Biotin-VPKDLPPDTT

Measured: binding result

B1: monoclonal antibody of the PRO-C16 assay, raised against KLH-CGG-… (antibody, mouse IgG2b, kappa, V domains shown)
VH: EVQLQQSGAELVRSGASVKLSCTASGFNIKDYYIHWVKQRPEQGLEWIGWIDHDNGDTEYDPKFQGKATLTADTSSNTAYLQLSSLTSEDTAVYYCNAKGPRYGYEEDWFAYWGQGTLVTVST
VL: DVLMTQTPLSLPVSLGDQASISCRSSQSIVHNNGNTYLEWFLQKPGQSPKLLIYKVSNRFSGVPDRFSGSGSGTDFTLRISRVEADDLGVYYCFQGSHVPRTFGGGTKLEIKR
notes: also called PRO-C16 antibody; C16-C
no binding: all assays above
